By Km is commonly meant the concentration of substrate that gives half-maximal velocity. A word on the kcat: it is the maximal rate divided by the concentration of active sites. Usually kcat/Km stands for the turnover number divided by the Michaelis constant.

Substrate in this data set: O=[N+]([O-])c1ccc(O[C@@H]2O[C@H](CO)[C@@H](O)[C@H](O)[C@H]2O)cc1
In words: purified protein. The following applies: 50 mM citrate phosphate buffer, pH 7.0, 37 °C, 5.5 min, 0.02-3 mM pNPG.

Where a chain is given by its changes, count along the chain named. In names and notes the source's numbering stands.

B1: BglA (β-glucosidase A) (Paenibacillus polymyxa; T231K) (protein)
chain: TIFQFPQDFMWGTATAAYQIEGAYQEDGRGLSIWDTFAHTPGKVFNGDNGNVACDSYHRYEEDIRLMKELGIRTYRFSVSWPRIFPNGDGEVNQEGLDYYHRVVDLLNDNGIEPFCTLYHWDLPQALQDAGGWGNRRTIQAFVQFAETMFREFHGKIQHWLTFNEPWCIAFLSNMLGVHAPGLTNLQTAIDVGHHLLVAHGLSVRRFRELGTSGQIGIAPNVSWAVPYSKSEEDKAACARTISLHSDWFLQPIYQGSYPQFLVDWFAEQGATVPIQDGDMDIIGEPIDMIGINYYSMSVNRFNPEAGFLQSEEINMGLPVTDIGWPVESRGLYEVLHYLQKYGNIDIYITENGACINDEVVNGKVQDDRRISYMQQHLVQVHRTIHDGLHVKGYMAWSLLDNFEWAEGYNMRFGMIHVDFRTQVRTPKESYYWYRNVVSNNWLETRR
Regarding B1, the Km is 610 ± 70 µM, the turnover number (kcat) came out at 36.3 s⁻¹ and the specificity constant (kcat/Km) was found to be 59300 M⁻¹ s⁻¹.

B2: BglA (β-glucosidase A) (Paenibacillus polymyxa; E96R) (protein)
chain: B1 chain with E95R, K230T
Regarding B2, the Michaelis constant (Km) is 470 ± 20 µM, the kcat was 21.2 s⁻¹ and the catalytic efficiency (kcat/Km) came to 44800 M⁻¹ s⁻¹.

B3: BglA (β-glucosidase A) (Paenibacillus polymyxa; Q216R) (protein)
chain: B1 chain with Q215R, K230T
For B3, the Km worked out at 460 ± 0 µM, the kcat was found to be 26 s⁻¹ and the kcat/Km was 56900 M⁻¹ s⁻¹.

B4: BglA (β-glucosidase A) (Paenibacillus polymyxa; E96K) (protein)
chain: B1 chain with E95K, K230T
Regarding B4, the Michaelis constant (Km) is 190 ± 10 µM, the turnover number (kcat) was determined as 28.4 s⁻¹ and the kcat/Km came to 149000 M⁻¹ s⁻¹.

B5: BglA (β-glucosidase A) (Paenibacillus polymyxa) (protein)
chain: B1 chain with K230T
As to B5, the Km was determined as 1210 ± 30 µM, the catalytic constant (kcat) turned out to be 44.7 s⁻¹ and the kcat/Km is 36900 M⁻¹ s⁻¹.
